Patent US8956838B2, “Carboxyl esterase polypeptides” (B.R.A.I.N., priority 2006, dated 2015)

How the values were obtained:
Type in all cases: biochemical
[1] = Effect of bivalent cations and EDTA on catalytic activity
[2] = Determination of pH optimum by titration; settings: incubation for up to 48 hours, up to pH 12 (data not shown)
Procedure: The pH optimum for the enzymes was determined using tributyrin as substrate. The incubation conditions were 20 ml buffer (2.5 mM phosphate buffer [pH 4-7], 2.5 mM Tris/HCl buffer [pH 7-11] or 2.5 mM glycine buffer [pH 9-11], supplemented with 100 mM NaCl) stirred at a constant temperature of 37° C. The esterase substrate tributyrin (final concentration of 2 mM) was added to 5 ml of the corresponding buffer at 37° C., emulsified and added to the whole preparation. This substrate emulsion was held constant at the correct pH automatically by the titrator (718 STAT Titrino; Metrohm, Herisau, Switzerland) for 2 min and this served as the control. […]

[3] = Titration assay with vinyl acid esters; settings: 10 mM, 37° C., pH 7.0
Procedure: Enzyme activities on the substrates triacetin, tripropionin, tributyrin, tricaprylene, trilaurin and vinyl-substrates (vinyl-acetate, ˜propionate, ˜butyrate, ˜caproate, ˜caprylate and ˜laurate) were determined using a standard titration assay with minor modifications. Tests were performed with a Methrom 718 STAT potentiometric titrator (Herisau, Switzerland) and by using 10 mM NaOH for titration. The substrates at 10 mM concentration were emulsified in 20 ml reaction buffer containing 2 mM Tris/HCl pH 7.0. After addition of 7.5 μg of the purified enzyme the NaOH consumption was recorded at a reaction temperature of 37° C. One unit was defined as the amount of enzyme that released […] of fatty acid per min.

[4] = Solvent stability, residual activity; settings: 1 h at 30° C., measured at 45° C.
Procedure: The stability of the enzymes was determined in the presence of the following solvents: DMSO, isopropanol, methanol, dimethylformamide, acetone and acetonitrile. The enzymes were incubated for 1 hour at 30° C. in the presence of either 15% (v/v) or 30% (v/v) of the solvents and the residual activity was measured at 45° C. The substrate used was pNP-butyrate.

[5] = Substrate specificity on pNP-substrates with importance for pharmaceutical products; settings: 30 minute, 40° C., pH 7.5
Procedure: The substrate range of the two enzymes was determined using pNP esters of the following: benzoate, 2-(4-isobutylphenyl)propanoate (Ibuprofen), 2-phenylpropanoate, 3-phenylbutanoate, cyclohexanoate, 2-(3-benzoylphenyl)propanoate, 2-naphthoate, 1-naphthoate, adamantanoate and 2-(6-methoxynaphthalene-2-yl)propanoate (Naproxen). Activity was determined at 410 nm after 30 minute incubation at 40° C. The reaction mixture was 950 μl buffer (100 mM Tris, pH 7.5), 50 μl substrate (5 mg/ml in DMSO) and 1 μg enzyme.

[6] = Determination of thermal stability
Procedure: To assay the thermostability of the enzymes they were incubated at different temperatures for one hour and the residual activity assayed at 10 minute intervals. Residual activity was measured using pNP-caproate as substrate as described above.

[7] = Enzyme activity with pNP-acylesters of different chain length; settings: 4 mM, 45° C., pH 7.2
Procedure: Enzyme activity tests were performed by incubating the enzyme with 4 mM substrate at 45° C. in 100 mM Tris-HCl buffer at pH 7.2, unless otherwise indicated. The reaction was measured at 410 nm. One unit is defined as the amount of enzyme catalyzing the appearance of 1 μmol of free p-nitrophenol/min. Enzyme activity against pNP-acylesters (butyrate, valerate, caproate, octanoate, decanoate and palmitate) was tested under the above conditions. […] The enzyme according to SEQ ID NO: 6 converted pNP-caproate with a specific activity of 80.0 U/mg.

[8] = Enantioselectivity, GC analysis of hydrolysis of acetic acid esters; settings: for conversion %: ^2 only complete conversion could be measured
Procedure: To assay the activity of the enzymes on a range of acetic acid esters gas chromatography was used. The samples were analyzed for the production of chiral alcohols by the gas chromatograph GC-17A (Shimadzu, Duisburg, Germany) equipped with FID detector and CP-Chirasil-DEX CB (Chrompack (Middelburg, Netherlands), 25 m×0.25 mm ID) at a helium flow of 1.3 ml/min. The temperature programme included: 5 min at 60° C., followed by an increase of 5° C. per min until 190° C. was reached. For the GC analysis, activity-tests were run in 1 M Tris buffered solutions and using 10 mM substrates dissolved in DMSO as 0.1 M stock solutions. 2 μg of the enzyme were added and tests incubated over night before the corresponding alcohols could be extracted by treatment with acetic acid ethyl ester and analyzed by GC.

[9] = substrate Acetic acid ester of tetrahydronaphthylamin
[10] = substrate acetic acid ester of (+/−)-1-octin-3-ol, 10 mM, over night
[11] = substrate acetic acid ester of cis-1,2-cyclohexandiol, values marked ^1: substrate conversion after 12 h
[12] = substrate acetic acid ester of phenylethylamin
[13] = substrate acetic acid ester of trans-1,2-cyclohexandiol
[14] = substrate cis-3,5-diacetoxy-1-cyclopenten
[15] = substrate isopropylidenglycerolacetate (rac.), values marked ^1: substrate conversion after 12 h

B1: EstCE1: recombinant enzyme having carboxyl esterase activity, amino acid sequence SEQ ID NO: 4, family VIII of bacterial lipolytic enzymes (protein)
chain: MSIADQSLAKRVQGVSQQAIDEGRIVGSVVLIARHGRVIYANASGYADREQKKPMVRETQFRLSSVSKPYITLAAMRMIEQQKLGLDDTVSRWLPWFTPALADGVRPPIKIRHLLSHTAGLDYRLSQPAEGPYHRLGIKDGMELSSLTLEQNLRLLAQADLLAEPGSEFRYSLAIDVLGAVLEQVAGEPLPQVFNHWVAQPLGLRNTGFYTTDVDNLATAYHDTAAEPEPIRDGMLLTLPEGFGFEIELAPSRALDAQAYPSGGAGMVGDADDVLQLVETLRTGKEGILQPATAALMRQAHVGSHAETQGPGWGFGFGGAVLEDAQLAATPQHNGTLQWGGVYGHSWFYDPQAAISVVALTNTAFEGMSGRYPLQIRDAVYGTNEPTR
modifications: metagenomic sequence
[1]; in the presence of Ca^2+
  stimulatory effect on catalytic activity: 118%
[1]; in the presence of Mg^2+
  stimulatory effect on catalytic activity: 108%
[2]
  stability under alkaline conditions, in words: extremely stable with little loss of activity
[3]; substrate vinyl acetate (C2)
  specific activity: 13.3 U/mg
[3]; substrate vinyl butyrate (C4)
  specific activity: 16.0 U/mg
[3]; substrate vinyl caproate (C6)
  specific activity: 0 U/mg
[3]; substrate vinyl caprylate (C8)
  specific activity: 0 U/mg
[3]; substrate vinyl laurinate (C12)
  specific activity: 0 U/mg
[3]; substrate vinyl propionate (C3)
  specific activity: 13.3 U/mg
[4]; 15% (v/v) Acetone
  Residual activity after 1 h incubation in the presence of solvent: 14%
[4]; 15% (v/v) Acetonitrile
  Residual activity after 1 h incubation in the presence of solvent: 0%
[4]; 15% (v/v) DMSO
  Residual activity after 1 h incubation in the presence of solvent: 103%
[4]; 15% (v/v) Dimethylformamid
  Residual activity after 1 h incubation in the presence of solvent: 34%
[4]; 15% (v/v) Isopropanol
  Residual activity after 1 h incubation in the presence of solvent: 75%
[4]; 15% (v/v) Methanol
  Residual activity after 1 h incubation in the presence of solvent: 90%
[4]; 30% (v/v) Acetone
  Residual activity after 1 h incubation in the presence of solvent: 0%
[4]; 30% (v/v) Acetonitrile
  Residual activity after 1 h incubation in the presence of solvent: 0%
[4]; 30% (v/v) DMSO
  Residual activity after 1 h incubation in the presence of solvent: 17%
[4]; 30% (v/v) Dimethylformamid
  Residual activity after 1 h incubation in the presence of solvent: 0%
[4]; 30% (v/v) Isopropanol
  Residual activity after 1 h incubation in the presence of solvent: 23%
[4]; 30% (v/v) Methanol
  Residual activity after 1 h incubation in the presence of solvent: 0%
[5]; pNP-ester of 1-naphthoate
  specific activity: 0 U/mg
[5]; pNP-ester of 2-(3-benzoylphenyl) propanoate
  specific activity: 0.8 U/mg
[5]; pNP-ester of 2-(4-isobutylphenyl) propanoate (Ibuprofen)
  specific activity: 0 U/mg
[5]; pNP-ester of 2-(6-methoxy-naphthalen-2-yl) propanoate (Naproxen)
  specific activity: 0 U/mg
[5]; pNP-ester of 2-naphthoate
  specific activity: 0 U/mg
[5]; pNP-ester of 2-phenylpropanoate
  specific activity: 0 U/mg
[5]; pNP-ester of 3-phenylbutanoate
  specific activity: 1.0 U/mg
[5]; pNP-ester of adamantanoate
  specific activity: 0 U/mg
[5]; pNP-ester of benzoate
  specific activity: 12.1 U/mg
[5]; pNP-ester of cyclohexanoate
  specific activity: 16.8 U/mg
[6]; incubated for at least 60 minutes at 40° C.
  thermal stability, in words: without a major loss of activity
[6]; incubation at temperatures above 45° C. for more than 60 minutes (data not shown)
  thermal stability, in words: rapid inactivation
[7]; substrate pNP-butyrate (C4)
  specific activity: 31.1 U/mg
[7]; substrate pNP-caproate (C6)
  specific activity: 7.4 U/mg
[7]; substrate pNP-decanoate (C10)
  specific activity: 0.9 U/mg
[7]; substrate pNP-octanoate (C8)
  specific activity: 1.0 U/mg
[7]; substrate pNP-palmitate (C16)
  specific activity: 0.0 U/mg
[7]; substrate pNP-valerate (C5)
  specific activity: 22.9 U/mg
[8]; acetic acid ester of R-(+)-3-chlor-1-phenyl-1-propanol
  hydrolysis, in words: capable of hydrolyzing
[8]; acetic acid ester of cis-1,2-cyclohexanediol
  conversion, in words: capable of converting
[8]; acetic acid ester of isopropylidene glycerol
  conversion, in words: capable of converting
[8]; acetic acid ester of rac-1-octin-3-ol
  hydrolysis, in words: capable of hydrolyzing
[8]; acetic acid ester of trimethylsilylbutinol
  hydrolysis, in words: capable of hydrolyzing
[8]; [9]
  conversion % of 1.e: 0%
  conversion % of 2.e: 0%
[8]; substrate acetic acid ester of (+/−)-1-octin-3-ol
  ee %: 3%
[8]; [10]
  conversion % of 1.e: 64%
  conversion % of 2.e: 60%
[8]; substrate acetic acid ester of R-(+)-3-chlor-1-phenyl-1-propanol
  conversion %: 100^2%
[8]; substrate acetic acid ester of cis-1,2-cyclohexandiol
  ee %: 0%
[8]; [11]
  conversion % of 1.e: 100^1%
  conversion % of 2.e: 100^1%
[8]; [12]
  conversion % of 1.e: 0%
  conversion % of 2.e: 0%
[8]; [13]
  conversion % of 2.e: 45%
  ee %: 38%
[8]; substrate acetic acid ester of trans-1,2-cyclohexandiol, in text: conversion of the preferred enantiomer
  conversion % of 1.e: 100%
[8]; substrate acetic acid ester of trimethylsilylbutinol
  conversion %: 100^2%
[8]; [14]
  conversion % of 2.e: 59%
  ee %: 66%
[8]; substrate cis-3,5-diacetoxy-1-cyclopenten, conversion for the preferred enantiomer
  conversion % of 1.e: 12%
[8]; substrate isopropylidenglycerolacetate (rac.)
  ee %: 0%
[8]; [15]
  conversion % of 1.e: 100^1%
  conversion % of 2.e: 100^1%
[8]; substrate menthylacetate (rac), for the (+)-enantiomer
  ee %: 100%
[8]; substrate menthylacetate, 1. enantiomer (+)
  conversion % of 1.e: 100%
[8]; substrate menthylacetate, 2.e. (−)
  conversion % of 2.e: 0%
